Results on one substance are retold here after US20080009021A1.

The target of the test is E3 His-ROC1/Cul1 complex (UniProt Q13616). Nature of the test: cell-based or functional assay.

On to Flag-ubiquitin moiety, for which the amount of E3 giving maximum attachment of ubiquitin moiety to E3 (luminescence, nickel plate) (ng per 100 µl) lay within 200 to 300.
